B1: Anti-factor Bb mouse monoclonal antibody (antibody, V domains shown)
VH: EVQLVESGGALVKPGGSLKLSCAASGFTFSNYAMSWVRQTPEKRLEWVATISNRGSYTYYPDSVKGRFTISRDNAKNTLYLQMSSLRSEDTALYYCARERPMDYWGQGTSVTVSS
VL: DIVMTQSHKFMSTSVGDRVSITCKASQDVGTAVAWYQQKPGQSPKLLIYWASTRHTGVPDRFTGSGSGTDFTLTITNVQSEDLAVYFCHQHSSNPLTFGAGTKLELK
B2: VH4/Vκ7 (antibody, V domains shown)
VH: EVQLVESGGGLVKPGGSLRLSCAASGFTFSNYAMSWVRQAPGKRLEWVATISNRGSYTYYPDSVKGRFTISRDNAKNSLYLQMSSLRSEDTALYYCARERPMDYWGQGTSVTVSS
VL: DIQMTQSPSTLSASVGDRVTITCKASQDVGTAVAWYQQKPGKAPKLLIYWASTRHTGVPDRFSGSGSGTDFTLTISSLQAEDFAVYFCHQHSSNPLTFGQGTKLEIK
B3: VH6/Vκ6 (antibody, V domains shown)
VH: EVQLVESGGGLVKPGGSLRLSCAASGFTFSNYAMSWVRQAPGKRLEWVATISNRGSYTYYPDSVKGRFTISRDNAKNSLYLQMNSLRAEDTALYYCARERPMDYWGQGTLVTVSS
VL: DIVMTQSPSFLSASVGDRVTITCKASQDVGTAVAWYQQKPGKAPKLLIYWASTRHTGVPDRFTGSGSGTDFTLTISSLQSEDFAVYFCHQHSSNPLTFGQGTKLEIK
B4: VH7/Vκ7 (antibody, V domains shown)
VH: EVQLVESGGGLVKPGGSLRLSCAASGFTFSNYAMSWVRQTPEKRLEWVATISNRGSYTYYPDSVKGRFTISRDNAKNSLYLQMNSLRAEDTALYYCARERPMDYWGQGTLVTVSS
VL: DIQMTQSPSTLSASVGDRVTITCKASQDVGTAVAWYQQKPGKAPKLLIYWASTRHTGVPDRFSGSGSGTDFTLTISSLQAEDFAVYFCHQHSSNPLTFGQGTKLEIK

target: cynomolgus monkey factor Bb (cynomolgus monkey); assay: BLI Octet, biotinylated antibody on SA biosensors

B1 and B2 are the same in Kd: 11 nM for the first, 11 nM for the second.

B3 and B4 are within 1.5-fold of each other in Kd: 11 nM for the first, 16 nM for the second.

Source: patent US20210332115A1
